Here are results for one molecule from patent US20120232127A1, “REGULATION OF NEUROTRANSMITTER RELEASE THROUGH ANION CHANNELS” (KOREA INSTITUTE OF SCIENCE AND TECHNOLOGY, priority 2008, published 2012).

The target of the data set is T1, astrocytic CAAC / mBest1 channel (glutamate release) (Mus musculus, UniProt O88870, R255K).
T1 construct: endogenous in cells; host or cells: cultured mouse cortical astrocytes
T1 sequence (O88870 1-551 R255K): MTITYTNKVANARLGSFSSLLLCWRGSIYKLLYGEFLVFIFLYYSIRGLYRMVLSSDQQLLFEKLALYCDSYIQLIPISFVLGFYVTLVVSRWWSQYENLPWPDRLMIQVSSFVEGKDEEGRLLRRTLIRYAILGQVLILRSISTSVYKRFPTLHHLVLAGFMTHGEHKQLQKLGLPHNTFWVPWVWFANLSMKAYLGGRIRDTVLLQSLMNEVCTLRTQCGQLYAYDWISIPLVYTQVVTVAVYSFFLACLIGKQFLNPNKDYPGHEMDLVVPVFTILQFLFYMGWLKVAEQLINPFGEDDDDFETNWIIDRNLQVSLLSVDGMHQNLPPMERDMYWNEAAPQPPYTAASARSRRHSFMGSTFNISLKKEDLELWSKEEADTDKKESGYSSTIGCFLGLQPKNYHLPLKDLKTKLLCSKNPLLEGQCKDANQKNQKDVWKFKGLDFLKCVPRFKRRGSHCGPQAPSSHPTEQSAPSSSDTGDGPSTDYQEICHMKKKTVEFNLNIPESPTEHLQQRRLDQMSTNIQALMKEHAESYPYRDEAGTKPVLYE
Put plainly: Sniffer patch: astrocyte to GluR1 (L497Y)-expressing HEK293T cell pairs, TFLLR-induced glutamate release. The format is cell-based. The settings on record: sniffer patch, lentiviral shRNA expressing astrocytes, TFLLR. As for the experimental part:
The sniffer patch technique, which is used for determining whether or not one is permeable to glutamate, was performed as described in Lee, C. J. et al. Astrocytic control of synaptic NMDA receptors. J Physiol 581, 1057-81 (2007), which is hereby incorporated by reference for all purposes as if fully set forth herein.
2. In experiments using astrocyte-HEK293T cell pairs, the sniffer patch techniques used naïve, scrambled- or mBest1-specific shRNA expressing (with GFP) astrocytes as a glutamate source; and GluR1 (L497Y) expressing HEK293T cells (with DsRED) as a detector. After obtaining gigaohm sealing, GluR1 (L497Y)-expressing cell was firstly ruptured, and then counterpart astrocytes were pressure-applied with 500 uM of TFLLR to evoke an increase in astrocytic intracellular Ca^2+ and resulting glutamate release onto the adjacent HEK293T cells.
GluR1LY-expressing detector cells were patched with the pipette solution pH 7.3 containing 110 mM CsGluconate, 30 mM CsCl, 5 mM HEPES, 4 mM NaCl, 2 mM MgCl2, 5 mM EGTA, and 1 mM CaCl2. The percentage of GluR1 (L497Y)-mediated current to the full activation level was analyzed by dividing the current amplitude of GluR1 (L497Y) current obtained through sniffer patch measurement by that of fully activated GluR1 (L497Y) current in the same cells.
The glutamate release through astrocytic CAACs was examined by using “sniffer-patch” technique and recording real-time glutamate release from cultured astrocytes (FIG. 10a). Using this technique, the present inventors observed that TFLLR-induced astrocytic glutamate release into an adjacent HEK293T cells expressing the non-desensitizing AMPA receptor subunit GluR1 (L497Y) mutant evoked an inward current sensitive to AMPA receptor antagonists, which is interpreted to reflect release of glutamate. The effects of TFLLR on current responses in transfected HEK293T cells was blocked by the treatment of niflumic acid (% block by niflumic acid=66.6±5.7%, FIGS. 10d to 10f), which is consistent with the idea that astrocytic CAAC is permeable to glutamate.

B1: mBest1 shRNA: mBest1-specific short hairpin RNA, SEQ ID NO: 3 and 4 (lentiviral: SEQ ID NO: 30), nucleotides 563-582 of mBest1 (nucleic acid)
chain 1: GATCCCCTTGCCAACTTGTCAATGAATTCAAGAGATTCATTGACAAGTTGGCAATTTTTA
chain 2: GGGAACGGTTGAACAGTTACTTAAGTTCTCTAAGTAACTGTTCAACCGTTAAAAATTCGA
As for B1, the “percentage of GluR1 (L497Y)-mediated current to the fully activated GluR1 (L497Y) current by 1 mM glutamate” value turned out to be 4.2±1.2%.
